The source of these data is patent US20250075002A1 (BEIGENE SWITZERLAND, published 2025).

Experiment [1] addresses T1, human CD16A-His6 (F158) (human, UniProt P08637 17-208).
T1 construct: Bought ECD fragment; also called human CD16A (F158); not shown: six-histidine tag (His6)
The experiment is described as follows: SPR; BG1222P captured by biotin anti-human Fc VHH on neutravidin, analyte in solution.

Experiment [2] addresses T2, human CD16A-His6 (V158) (human, UniProt P08637 17-208).
T2 construct: Bought (Sino Biologics) ECD fragment; also called CD16A 158V; human CD16A (V158); not shown: six-histidine tag (His6)
Described as above.

In experiment [3] the target is T3, human CD16A (F158) on NK92mi cells (human, UniProt P08637 17-254).
T3 construct: NK92mi cells co-transduced with CD16A (F158) and FcRgamma cDNAs; also called NK92mi/CD16A F158
Nature of the experiment: flow cytometry, biotinylated antibody on NK92mi/CD16A F158 cells, w/o huIgG.

Experiment [4] concerns the target T4, human CD16A (V158) on NK92mi cells (human, UniProt P08637 17-254).
T4 construct: NK92mi cells co-transduced with CD16A (V158) and FcRgamma cDNAs; also called NK92mi/CD16A V158; NK92mi/CD16A
Nature of the experiment: flow cytometry, biotinylated antibody on NK92mi/CD16A V158 cells, w/o huIgG.

The target of experiment [5] is T4, human CD16A (V158) on NK92mi cells. The experiment is described as follows: flow cytometry, biotinylated antibody on NK92mi/CD16A V158 cells, with 10 mg/ml huIgG1 as competitor.
Experiment [6] addresses T3, human CD16A (F158) on NK92mi cells. The experiment is described as follows: flow cytometry, biotinylated antibody on NK92mi/CD16A F158 cells, with 10 mg/ml huIgG1 as competitor.
Experiment [7] has as its target T1, human CD16A-His6 (F158). Nature of the experiment: SPR; BG1222P captured by biotin anti-human Fc VHH on neutravidin; column head prints 'KD (nM)', koff/kon shows M.
In experiment [8] the target is T2, human CD16A-His6 (V158). The experiment is described as above.

T2 sequence (P08637 17-208 F176V): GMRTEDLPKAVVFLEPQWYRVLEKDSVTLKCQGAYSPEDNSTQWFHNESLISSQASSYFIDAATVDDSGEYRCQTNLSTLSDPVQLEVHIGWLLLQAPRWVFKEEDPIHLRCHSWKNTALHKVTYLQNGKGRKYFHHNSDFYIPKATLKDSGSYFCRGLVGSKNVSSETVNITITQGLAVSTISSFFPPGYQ
T1 sequence (P08637 17-208): as the sequence (P08637 17-208 F176V) above, with V160F counted along it
T3 sequence (P08637 17-254 limits assumed): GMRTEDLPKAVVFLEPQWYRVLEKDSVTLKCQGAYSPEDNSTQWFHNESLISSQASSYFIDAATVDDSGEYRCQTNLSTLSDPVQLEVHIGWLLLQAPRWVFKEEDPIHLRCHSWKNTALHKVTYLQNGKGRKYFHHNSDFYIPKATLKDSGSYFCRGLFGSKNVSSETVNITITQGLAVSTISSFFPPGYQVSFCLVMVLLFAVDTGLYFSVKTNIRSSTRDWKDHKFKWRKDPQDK
T4 sequence (P08637 17-254 F176V limits assumed): as the sequence (P08637 17-254 limits assumed) above, with F160V counted along it

B1: MUC1×CD16A multi-specific antibody BG1222P (bispecific antibody, human IgG1, kappa)
chain: EVQLVESGGGLVQPGGSLRLSCAASGRTFGSYAVGWFRQAPGKGREFVAAIRRSDATTDYVDSVKGRFTISRDNAKNTVYLQMNSLKPEDTAVYYCAASDSDYEPLGDYWGQGTLVTVSSGGGGSGGGGSEVQLVESGGGLVQPGGSLRLSCAASGRTFGSYAVGWFRQAPGKGREFVAAIRRSDATTDYVDSVKGRFTISRDNAKNTVYLQMNSLKPEDTAVYYCAASDSDYEPLGDYWGQGTLVTVSSEPKSSDKTHTCPPCPAPELLGGPSVFLFPPKPKDTLYITREPEVTCVVVDVSHEDPEVKFNWYVDGVEVHNAKTKPREEQYNSTYRVVSVLTVLHQDWLNGKEYKCKVSNKALPAPIEKTISKAKGQPREPQVYTLPPSREEMTKNQVSLWCLVKGFYPSDIAVEWESNGQPENNYKTTPPVLDSDGSFFLYSKLTVDKSRWQQGNVFSCSVMHEALHNHYTQKSLSLSPGK
heavy: EVQLLESGGGLVQPGGSLRLSCAASGFTFNDYIMSWVRQAPGKGLEWVATVSSGGDNTYYPDSVKGRFTISRDNSKNTLYLQMNSLRAEDTAVYYCTRYGGLGAMDYWGQGTLVTVSSASTKGPSVFPLAPSSKSTSGGTAALGCLVKDYFPEPVTVSWNSGALTSGVHTFPAVLQSSGLYSLSSVVTVPSSSLGTQTYICNVNHKPSNTKVDKKVEPKSCDKTHTCPPCPAPELLGGPSVFLFPPKPKDTLYITREPEVTCVVVDVSHEDPEVKFNWYVDGVEVHNAKTKPREEQYNSTYRVVSVLTVLHQDWLNGKEYKCKVSNKALPAPIEKTISKAKGQPREPQVYTLPPSREEMTKNQVSLSCAVKGFYPSDIAVEWESNGQPENNYKTTPPVLDSDGSFFLVSKLTVDKSRWQQGNVFSCSVMHEALHNHYTQKSLSLSPGK
light: DIQMTQSPSSLSASVGDRVTITCRASGNIHNYLTWYQQKPGKAPKLLIYNAKTLASGVPSRFSGSGSGTDFTLTISSLQPEDFATYYCQHFWSVPYTFGQGTKLEIKRTVAAPSVFIFPPSDEQLKSGTASVVCLLNNFYPREAKVQWKVDNALQSGNSQESVTEQDSKDSTYSLSSTLTLSKADYEKHKVYACEVTHQGLSSPVTKSFNRGEC
notes: '2+1' IgG-like format: chain 1 = tandem BG526P VHHs-hinge-Fc (knob), chain 2 = huBG219P-E39 heavy chain (hole), chain 3 = huBG219P-E39 kappa light chain; YTE mutations in both Fc; also called BG11222P
In the case of B1, the results for the koff with human CD16A-His6 (F158) [1] and with human CD16A-His6 (V158) [2] were 8.52e-05 s⁻¹ and 4.22e-05 s⁻¹, respectively. In addition, the kon in the experiment with human CD16A-His6 (F158) [1] stood at 579000 M⁻¹ s⁻¹; in the experiment with human CD16A-His6 (V158) [2], 886000 M⁻¹ s⁻¹. Moreover, the EC50 worked out at 0.97 nM in experiment [3], 0.35 nM in experiment [4], 33.9 nM in experiment [5] and 7.99 nM in experiment [6]. Moreover, the Kd with human CD16A-His6 (F158) [7] was determined as 0.147 nM; with human CD16A-His6 (V158) [8], 0.0477 nM.
